Experimental findings from WO2018019380A1 (dated 2018) are described below.

This assay deals with T1, CEACAM1 (as used for the Kd / Kon / Koff values) (human, UniProt P13688 35-428, limits assumed).
T1 sequence (looked up): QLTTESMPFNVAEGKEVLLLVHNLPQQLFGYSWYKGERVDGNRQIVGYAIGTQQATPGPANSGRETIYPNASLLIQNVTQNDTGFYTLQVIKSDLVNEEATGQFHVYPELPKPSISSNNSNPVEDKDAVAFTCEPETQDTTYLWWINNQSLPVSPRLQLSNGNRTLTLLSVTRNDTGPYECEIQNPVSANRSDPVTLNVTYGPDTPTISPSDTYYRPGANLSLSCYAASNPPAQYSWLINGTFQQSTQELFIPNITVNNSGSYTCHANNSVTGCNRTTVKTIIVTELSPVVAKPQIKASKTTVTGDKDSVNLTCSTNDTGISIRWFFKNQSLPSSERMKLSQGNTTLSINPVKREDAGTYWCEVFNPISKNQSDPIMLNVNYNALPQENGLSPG
The experiment in a line: method not stated.

B1: Anti-human CEACAM1 antibody (Clone B3-17) (antibody, V domains shown)
VH: GPELVKPGTSVKMSCKASGYTFTTYVMHWVQQKPGQGLDWIGFFNPYNDGTKYNEKFKGKATLTSDKSSSTAYMELSSLTSEDSAVYYCARWAYDGSYAYWGQGTTLTVSS
VL: SYLSVFLGGRVTITCKASDHINNWLAWYQQKPGNAPRLLISGATSLETGVPSRFSGSGSGKDYTLSIISLQTEDVATYYCQQYWRTPFTFGSGTKLEIK
notes: Mouse monoclonal antibody from hybridoma B3-17; also called Antikörper B3-17; antibody B3-17
For B1, the affinity, expressed as Kd, was 10 nM.

B2: Anti-human CEACAM1 antibody (Clone 6G5J) (antibody, V domains shown)
VH: KPGETVKISCKTSGYIFRNYGMKWVKQAPGKGLKWMGWINTYTGEPTYADDFKGRFAFSLETSASTAYLQINNLKNEDMATYFCARRGMITTSNYALDNWGQGTSVTVSS
VL: SSLSASLGDRVTISCRASQDISNYLNWYQQKPDGTIKLLIYYTSKLHSGVPSRFSGSGSGTDYSLTISNLDQEDIATYFCQQGNTLPWTFGGGTKLEIK
notes: Mouse monoclonal antibody from hybridoma 6G5J; also called Antikörper 6G5J; antibody 6G5J
Turning to B2, binding was characterised by a dissociation constant (Kd) of 23 nM.

B3: Anti-human CEACAM1 antibody (Clone 18-20) (antibody, V domains shown)
VH: KPGETVKISCKASGYTFTVYGMNWVKQAPGKDLKWMGWINTYTGEPTYADDFKGRFAFSLETSASTAYLQINNLKNEDMATYFCARKAFYRYDGGMDYWGQGTSVTVSS
VL: SSLSASLGGKVTITCKASQDINKFLAWYQHKPGKGPRLLIHYTSTLQPGIPSRFSGSGSGRDYSFSISNLEPEDIATYYCLQYDNLYTFGGGTKLEIK
notes: Mouse monoclonal antibody from hybridoma 18-20; also called Antikörper 18-20; antibody 18-20
B3 registered a Kd of 26 nM.
